Article PMC6994259 (Nature, 2020)

B1: Taf12 (natural protein)
chain: MSSNPENSGVNANNNTGTGNADAITGAQQNMVLQPRQLQEMAAKFRTLLTEARNVGETTPRGKELMFQAAKIKQVYDALTLNRRRQQAAQAYNNTSNSNSSNPASIPTENVPNSSQQQQQQQQQTRNNSNKFSNMIKQVLTPEENQEYEKLWQNFQVRHTSIKEKETYLKQNIDRLEQEINKQTDEGPKQQLQEKKIELLNDWKVLKIEYTKLFNNYQNSKKTFYVECARHNPALHKFLQESTQQQRVQQQRVQQQQQQQQQQQQQQQQQQQQQQQRQGQNQRKISSSNSTEIPSVTGPDALKSQQQQQNTITATNNPRGNVNTSQTEQSKAKVTNVNATASMLNNISSSKSAIFKQTEPAIPISENISTKTPAPVAYRSNRPTITGGSAMNASALNTPATTKLPPYEMDTQRVMSKRKLRELVKTVGIDEGDGETVIDGDVEELLLDLADDFVTNVTAFSCRLAKHRKSDNLEARDIQLHLERNWNIRIPGYSADEIRSTRKWNPSQNYNQKLQSITSDKVAAAKNNGNNVASLNTKK

Key:
Assay in all cases: cryo-EM structure
[1] = target: Tra1 (S. cerevisiae, UniProt P38811 1-3744)
[2] = target: T1, Spt20 (S. cerevisiae, UniProt P50875 1-604)
T1 sequence: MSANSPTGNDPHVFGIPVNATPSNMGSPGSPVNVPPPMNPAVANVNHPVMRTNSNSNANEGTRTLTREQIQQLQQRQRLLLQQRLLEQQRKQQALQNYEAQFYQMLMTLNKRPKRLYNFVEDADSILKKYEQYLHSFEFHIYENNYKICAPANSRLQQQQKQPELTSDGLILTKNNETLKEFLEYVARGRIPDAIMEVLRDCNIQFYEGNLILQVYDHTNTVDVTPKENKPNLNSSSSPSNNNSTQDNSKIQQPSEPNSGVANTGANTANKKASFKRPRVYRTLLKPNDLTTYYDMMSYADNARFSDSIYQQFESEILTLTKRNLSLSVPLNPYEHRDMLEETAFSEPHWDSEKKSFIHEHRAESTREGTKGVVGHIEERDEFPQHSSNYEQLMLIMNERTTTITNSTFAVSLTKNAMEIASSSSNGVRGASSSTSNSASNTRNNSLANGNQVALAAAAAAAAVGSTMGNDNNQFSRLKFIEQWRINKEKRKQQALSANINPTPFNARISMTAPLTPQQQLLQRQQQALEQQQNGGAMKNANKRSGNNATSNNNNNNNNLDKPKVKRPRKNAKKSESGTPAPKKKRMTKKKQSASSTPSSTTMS

[3] = target: T2, Sgf73 (S. cerevisiae, UniProt P53165 1-657)
T2 sequence: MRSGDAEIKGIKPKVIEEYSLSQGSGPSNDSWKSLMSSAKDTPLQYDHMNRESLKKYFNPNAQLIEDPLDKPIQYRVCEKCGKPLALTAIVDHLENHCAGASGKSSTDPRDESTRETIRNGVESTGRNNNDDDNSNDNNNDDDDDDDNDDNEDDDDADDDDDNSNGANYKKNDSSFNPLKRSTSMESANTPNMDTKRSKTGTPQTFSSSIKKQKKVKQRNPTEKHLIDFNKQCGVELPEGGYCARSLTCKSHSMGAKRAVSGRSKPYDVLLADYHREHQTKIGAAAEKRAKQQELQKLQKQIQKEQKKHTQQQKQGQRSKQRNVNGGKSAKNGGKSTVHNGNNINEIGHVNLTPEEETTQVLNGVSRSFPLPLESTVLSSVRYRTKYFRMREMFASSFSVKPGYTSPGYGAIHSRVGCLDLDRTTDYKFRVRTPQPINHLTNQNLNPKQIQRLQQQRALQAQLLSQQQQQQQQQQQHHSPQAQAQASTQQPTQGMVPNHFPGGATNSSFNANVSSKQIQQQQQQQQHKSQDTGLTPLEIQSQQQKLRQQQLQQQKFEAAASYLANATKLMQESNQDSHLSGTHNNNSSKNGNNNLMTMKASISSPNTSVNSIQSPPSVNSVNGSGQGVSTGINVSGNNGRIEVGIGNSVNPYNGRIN

[4] = target: B1

Tra1, sequence (P38811 whole entry): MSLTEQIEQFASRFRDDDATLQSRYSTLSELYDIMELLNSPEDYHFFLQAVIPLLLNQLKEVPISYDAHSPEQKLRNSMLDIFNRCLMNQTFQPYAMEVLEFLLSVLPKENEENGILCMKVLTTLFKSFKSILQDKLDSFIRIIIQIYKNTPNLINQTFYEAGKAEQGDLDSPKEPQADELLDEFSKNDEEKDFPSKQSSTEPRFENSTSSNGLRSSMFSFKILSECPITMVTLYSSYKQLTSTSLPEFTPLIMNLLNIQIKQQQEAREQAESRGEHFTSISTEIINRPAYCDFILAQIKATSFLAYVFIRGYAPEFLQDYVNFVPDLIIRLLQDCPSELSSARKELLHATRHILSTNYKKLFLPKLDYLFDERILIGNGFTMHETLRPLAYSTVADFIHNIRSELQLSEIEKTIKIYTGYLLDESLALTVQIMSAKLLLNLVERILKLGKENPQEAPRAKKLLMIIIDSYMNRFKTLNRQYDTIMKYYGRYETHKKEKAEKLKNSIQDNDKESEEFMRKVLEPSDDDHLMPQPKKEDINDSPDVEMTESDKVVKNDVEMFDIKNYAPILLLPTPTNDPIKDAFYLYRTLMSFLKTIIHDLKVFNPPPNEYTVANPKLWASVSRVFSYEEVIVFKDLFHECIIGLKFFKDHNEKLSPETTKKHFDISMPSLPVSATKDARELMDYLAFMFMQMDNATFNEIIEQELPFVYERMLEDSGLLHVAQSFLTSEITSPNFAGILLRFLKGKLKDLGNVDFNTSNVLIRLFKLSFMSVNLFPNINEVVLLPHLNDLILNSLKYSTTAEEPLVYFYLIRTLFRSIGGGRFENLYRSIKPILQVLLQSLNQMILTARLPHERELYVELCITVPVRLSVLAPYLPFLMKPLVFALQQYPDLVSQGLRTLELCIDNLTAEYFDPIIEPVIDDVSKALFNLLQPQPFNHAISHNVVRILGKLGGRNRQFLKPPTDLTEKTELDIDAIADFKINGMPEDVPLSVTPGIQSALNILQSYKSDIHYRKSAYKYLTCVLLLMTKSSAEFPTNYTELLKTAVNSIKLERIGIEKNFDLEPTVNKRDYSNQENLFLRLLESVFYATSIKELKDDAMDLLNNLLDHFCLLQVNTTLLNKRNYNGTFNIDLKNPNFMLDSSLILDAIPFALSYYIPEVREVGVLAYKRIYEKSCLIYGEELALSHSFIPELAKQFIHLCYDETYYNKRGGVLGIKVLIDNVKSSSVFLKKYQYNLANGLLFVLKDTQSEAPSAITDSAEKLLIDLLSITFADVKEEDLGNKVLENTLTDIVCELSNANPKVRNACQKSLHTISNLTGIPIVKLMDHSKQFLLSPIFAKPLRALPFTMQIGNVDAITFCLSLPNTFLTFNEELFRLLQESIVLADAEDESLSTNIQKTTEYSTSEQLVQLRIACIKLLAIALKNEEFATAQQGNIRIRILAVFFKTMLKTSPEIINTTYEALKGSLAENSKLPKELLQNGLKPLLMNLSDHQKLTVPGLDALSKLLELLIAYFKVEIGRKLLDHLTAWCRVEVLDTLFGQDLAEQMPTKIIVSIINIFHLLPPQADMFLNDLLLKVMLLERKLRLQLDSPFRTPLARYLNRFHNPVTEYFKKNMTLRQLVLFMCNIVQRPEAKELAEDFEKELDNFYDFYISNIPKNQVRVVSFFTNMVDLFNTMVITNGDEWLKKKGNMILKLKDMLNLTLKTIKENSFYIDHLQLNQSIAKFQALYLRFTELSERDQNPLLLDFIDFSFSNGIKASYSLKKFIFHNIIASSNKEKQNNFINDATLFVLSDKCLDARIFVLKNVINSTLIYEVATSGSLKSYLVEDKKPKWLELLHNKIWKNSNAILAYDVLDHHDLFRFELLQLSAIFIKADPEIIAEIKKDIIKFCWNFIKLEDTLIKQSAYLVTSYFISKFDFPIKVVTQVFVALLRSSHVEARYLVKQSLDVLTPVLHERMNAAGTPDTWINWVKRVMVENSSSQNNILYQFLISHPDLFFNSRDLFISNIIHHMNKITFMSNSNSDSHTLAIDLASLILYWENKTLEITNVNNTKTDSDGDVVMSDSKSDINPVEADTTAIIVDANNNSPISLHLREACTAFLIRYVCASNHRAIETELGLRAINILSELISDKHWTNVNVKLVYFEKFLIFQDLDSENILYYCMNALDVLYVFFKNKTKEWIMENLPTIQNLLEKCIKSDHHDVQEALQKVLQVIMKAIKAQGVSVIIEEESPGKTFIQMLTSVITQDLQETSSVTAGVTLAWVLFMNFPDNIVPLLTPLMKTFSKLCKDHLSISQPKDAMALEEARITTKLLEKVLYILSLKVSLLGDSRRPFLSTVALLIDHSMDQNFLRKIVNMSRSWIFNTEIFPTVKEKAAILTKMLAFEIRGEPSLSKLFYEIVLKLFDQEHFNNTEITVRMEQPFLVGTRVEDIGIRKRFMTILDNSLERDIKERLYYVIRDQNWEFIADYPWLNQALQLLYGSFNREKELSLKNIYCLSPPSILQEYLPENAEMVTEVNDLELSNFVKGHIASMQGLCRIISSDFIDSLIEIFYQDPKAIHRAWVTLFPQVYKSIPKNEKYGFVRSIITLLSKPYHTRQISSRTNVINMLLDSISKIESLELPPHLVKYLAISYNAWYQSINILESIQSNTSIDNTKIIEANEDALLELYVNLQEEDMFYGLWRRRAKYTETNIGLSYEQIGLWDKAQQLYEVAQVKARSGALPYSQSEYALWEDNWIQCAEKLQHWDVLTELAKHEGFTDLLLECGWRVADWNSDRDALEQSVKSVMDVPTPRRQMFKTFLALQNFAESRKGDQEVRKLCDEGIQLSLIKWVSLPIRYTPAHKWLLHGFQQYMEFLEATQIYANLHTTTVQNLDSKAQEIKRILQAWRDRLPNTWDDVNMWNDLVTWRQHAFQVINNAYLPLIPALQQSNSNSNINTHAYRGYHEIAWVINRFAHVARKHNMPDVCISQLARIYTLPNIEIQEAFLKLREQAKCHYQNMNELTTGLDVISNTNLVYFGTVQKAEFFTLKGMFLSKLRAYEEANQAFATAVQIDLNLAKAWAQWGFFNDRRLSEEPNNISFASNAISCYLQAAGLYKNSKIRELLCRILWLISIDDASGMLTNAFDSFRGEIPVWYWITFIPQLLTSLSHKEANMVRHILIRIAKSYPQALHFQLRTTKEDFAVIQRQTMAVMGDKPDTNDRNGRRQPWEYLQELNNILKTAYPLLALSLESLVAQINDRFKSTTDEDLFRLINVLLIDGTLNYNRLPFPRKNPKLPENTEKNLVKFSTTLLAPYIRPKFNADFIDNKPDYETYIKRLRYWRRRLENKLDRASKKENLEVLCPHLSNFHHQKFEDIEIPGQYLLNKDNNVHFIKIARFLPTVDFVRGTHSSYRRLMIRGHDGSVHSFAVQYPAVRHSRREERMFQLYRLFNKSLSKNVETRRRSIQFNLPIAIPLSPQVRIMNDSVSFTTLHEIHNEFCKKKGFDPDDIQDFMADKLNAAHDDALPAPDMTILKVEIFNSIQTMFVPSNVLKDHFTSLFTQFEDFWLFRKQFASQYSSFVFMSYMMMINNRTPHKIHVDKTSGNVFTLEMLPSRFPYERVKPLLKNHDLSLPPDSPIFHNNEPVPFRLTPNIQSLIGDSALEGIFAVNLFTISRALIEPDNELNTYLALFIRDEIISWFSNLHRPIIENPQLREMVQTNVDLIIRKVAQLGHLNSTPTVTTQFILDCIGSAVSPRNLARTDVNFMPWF

Binder | binding result [1] | binding result [2] | binding result [3] | binding result [4]
B1 | binds | binds | binds | –
Ada1 (natural protein) MSAIQSPAPKPLQPTYPAASPASTNAYMKPGLIGSPAVSNHTEPNNGNNETAEPQGPNQRIDLGAMIEELTSLLGKESWTKYAQIISLFILGKLSRKELSNELELVFSPSAASLEKSNTNHHHSLVRLHNQLLLGIFANSLRENPLGRNGNESSWGFGNGSNNPNNKLKRINKHNSQIEVYKKIVMSLPLNDRNRLKMITKEAGKRGFIFCSVFQARLNNIPKIPIVTNPESLKRVKSNNLKTPLEWSQDIMNGFNVPLASESHSLPDTDSFYLRMVGIAREHGLVGTVDARCVELISLALDQYLKNIIEFTIDTVRYRRKKYSDYYDLNESGLYKSVSEMAADKRDAKIKQLDDDKNEDECADEAKSINNGNNSSKDDIGDISMSSITKAGEAVNEELHENRTISLTNEDIYDSLSIFPNLVEPSGSYYALTNLGLVNDDELVDMKSNIDDLPDFLNEKPTFTPLDERNVGTRHELNWLIKGILTED | – | – | binds | binds
